According to publication PMC4207793:

Molecular target: trimerized sTNFRII-gAD fusion protein (UniProt P20333)
Experiment: AUC; ultracentrifuge analysis of the purified trimerized sTNFRII-gAD

trimerized sTNFRII-gAD fusion protein (from UniProt P20333 23-257)
stoichiometry N: 3
